Laboratory results taken from patent publication US11918610B2, “Methods for diagnosis and treatment of type 1 diabetes” (priority 2018, dated 2024).

Tested on: non-obese diabetic mice (NOD/ShiLtJ) colonized with E. coli VT-55
Assay type: in vivo
Settings: NOD mice gavaged with E. coli VT-55; regimen of each agent as in Table 3; positive control (no therapy) 16, negative controls 24 and 26
Protocol: For this study non-obese diabetic mice (NOD/ShiLtJ) 8 weeks old (Jackson Laboratory, Bar Harbor, Me., USA) were housed and bred under specific pathogen-free conditions. Mice were maintained in a temperature controlled (22±2° C.) animal facility with a 12 hour light/dark cycle and were allowed free access to food and acidified drinking water. To increase the efficacy of E. coli transfer, all animals were exposed to antibiotic treatment before the transfer of E. coli. Starting at three weeks of age, recipient mice were treated with ampicillin (1 g/L) in the drinking water for the next 4 weeks. The bacterial strains used: E. coli strain VT-55—a wild-type, amyloid-producing strain. E. coli VT-55 bacteria were administered with oropharyngeal gavage to 8 week old female mice at 10^8 CFU, 2 times a week. Acceleration of T1D development was accessed by measuring blood glucose in a manner consistent with diabetes monitoring, using a FreeStyle Lite meter and test strips (Abbott). Blood glucose was evaluated weekly via a tail vein. T1D development was defined as occurring after two consecutive blood glucose measurements of at least 250 mg/dL.
TTR was expressed in E. coli VT-243. The TTR protein was precipitated from the supernatant of a 48 hour culture of E. coli VT-243 after centrifugation (12,000×g, 20 minutes 4° C.) of the lysed cells in the gradient 40-90% ammonium sulfate fraction (1.8-3.6 M). The precipitate that contained TTR was dialyzed overnight against 10 mM sodium phosphate buffer, pH 7.5, 100 mM KCl, 1 mM EDTA. The same volume of 200 mM sodium acetate buffer (pH 4.4, 100 mM KCl, 1 mM EDTA) was added to achieve a final pH of 4.5, and the mixture was then incubated for 18 hours at 37° C. Following centrifugation (45 min, 30,000×g, 4° C.), the supernatant was gel filtrated (Superdex 75) to elute phosphate buffer.
To develop nanoparticles with siRNA, we used cholesterol, distearoyl-sn-glycerol-3-phosphocholine (DSPC) and PEG2000-DMG (all Sigma). Nanoparticles were prepared by dissolving the 306013 lipidoid, cholesterol, DSPC, and PEG2000-DMG with final molar ratio of 50:38.5:10:1.5 in a 90% ethanol enriched with 10% 10 nM sodium citrate. Particles were formed following vortexing of equal volumes of siRNA solution with the lipid solution and subsequent dilution in PBS. Mice were orally gavaged with nanoparticles loaded with siRNA at a dose of 5 mg/kg.
The EcVac vaccine consisted of conjugates containing the 0-antigens of serotypes 06 of E. coli VT-55. […] The suspension for iv administration was made in TBS, (pH 7.4; 25 mmol Tris, 137 mmol NaCl, 2.8 mmol KCl).
Balb/c mice were immunized (10 μg) intraperitoneally and boosted (1 μg) subcutaneously with the E. coli amyloid isolated as previously described. Splenocytes were removed under sterile conditions, washed and hybridized to murine plasmacytoma parent cell line SP2/OAg14 using 40% polyethylene glycol and a spleen cell to plasmacytoma cell ratio of 5:1. Cells were plated in 96-well microtiter (Sarstedt) plates at 100,000 cells/per well with DMEM supplemented with 10% fetal bovine serum. Following 48h, cells were supplemented with hypoxanthine (100 PM) containing medium. After three washes with PBS-1% BSA, the presence of specific antibody binding was detected by ELISA. Serotype specific wells were cloned. Pristine-primed BALB/c mice were IP injected with 1×10^7 hybridoma cells. Ascites fluid was collected 14 days later, centrifuged (5000 g, 20 min, Eppendorf) and stored at −80° C. before use.

B1: T7 Endonuclease I: T7 Endonuclease I (New England Biolabs) (protein, UniProt P00641 1-149, looked up)
Endonuclease I: MAGYGAKGIRKVGAFRSGLEDKVSKQLESKGIKFEYEEWKVPYVIPASNHTYTPDFLLPNGIFVETKGLWESDDRKKHLLIREQHPELDIRIVFSSSRTKLYKGSPTSYGEFCEKHGIKFADKLIPAEWIKEPKKEVPFDRLKRKGGKK
Median T1D incidence 50% (weeks): 22 weeks
